Data as given in article PMC6978347.

Target: polymerization-deficient p62^1–102 (D69A/D73A) (human) (UniProt Q13501)
Experiment: ITC; VP-ITC, 25 °C, 10 mM HEPES pH 7.5, 150 mM NaCl; p62 D69A/D73A in the cell (5–20 μM), partner PB1 domain in the syringe (25–100 μM); one-site model; mean of three measurements

B1: MEKK3^43–127 (MEKK3–PB1) (domain or fragment)
chain: SDVRIKFEHNGERRIIAFSRPVKYEDVEHKVTTVFGQPLDLHYMNNELSILLKNQDDLDKAIDILDRSSSMKSLRILLLSQDRNH
Q: How did the Kd turn out when B1 was run?
A: The Kd was 26.8 nM.
